Substrate in data set [1]: NCCCCNCCCN
Briefly: DTNB colorimetric CoA assay, discontinuous. In kind it is biochemical, Staphylococcus aureus. Particulars: Assay 1 (standard), no pre-incubation with polyamine, 0.5 mM AcCoA, 70 mM Bicine pH 8.0, 20 mM NaCl, 37 °C, Hill fit. The text has this:
(§1) DTNB colorimetric CoA assay, discontinuous on SaSpeG

Substrate in data set [2]: CC(=O)SCCNC(=O)CCNC(=O)[C@H](O)C(C)(C)COP(=O)(O)OP(=O)(O)OC[C@H]1O[C@@H](n2cnc3c(N)ncnc32)[C@H](O)[C@@H]1OP(=O)(O)O
Briefly: DTNB colorimetric CoA assay, discontinuous. The format is biochemical, Staphylococcus aureus. Particulars: Assay 2, enzyme pre-incubated with spermine, co-substrate 1.5 mM spermine (acceptor and allosteric ligand), 70 mM Bicine pH 8.0, 20 mM NaCl, 0.005% Triton X-100, 22 °C, 22.0 °C.
From the text: as §1

Data set [3] concerns the molecule itself. Put plainly: crystal structure; ligand-free SaSpeG, 0.1 M NaCl, 0.1 M HEPES pH 8.0, 1.6 M ammonium sulfate; one protomer in the asymmetric unit; oligomer from symmetry-related proteins and PISA analysis.

Two proteins from PMC10378331, “Structural and Kinetic Characterization of the SpeG Spermidine/Spermine N-acetyltransferase from Methicillin-Resistant Staphylococcus aureus USA300” (Cells, 2023) can be followed below.

B1: SaSpeG (Staphylococcus aureus subsp. aureus USA300) (protein)
chain: MKLRALEYSDLLFVHELNNEYSIMSYWFEEPYESLTELQHLFDKHLLDESERRFIVEDENQVVGIVELVEINYIHRNCEIQIIIKPEFSGKGYAKFAFEKAIIYAFNILNMHKIYLYVDADNKKAIHIYESQGFKTEGLLKEQFYTKGKYKDAYFMSLLKSEYIL
notes: E. coli BL21(DE3); dodecamer by PISA
One may read the kcat as the number of substrate molecules converted per active site and unit of time at saturation. For orientation: kcat/Km means the second-order rate constant that governs catalysis at low substrate concentration. Turning to B1, in data set [1], the K0.5 was 4.0 ± 0.1 mM, the kcat was 3 s⁻¹ and the kcat/Km was determined as 750 M⁻¹ s⁻¹. Besides, in data set [2], the K0.5 came to 0.29 ± 0.01 mM, the turnover number (kcat) came to 390 s⁻¹ and the kcat/Km came to 1.3e+06 M⁻¹ s⁻¹.

B2: SpeG spermidine/spermine N-acetyltransferase from Staphylococcus aureus USA300 (enzyme)
chain: MKLRALEYSDLLFVHELNNEYSIMSYWFEEPYESLTELQHLFDKHLLDESERRFIVEDENQVVGIVELVEINYIHRNCEIQIIIKPEFSGKGYAKFAFEKAIIYAFNILNMHKIYLYVDADNKKAIHIYESQGFKTEGLLKEQFYTKGKYKDAYFMSLLKSEYIL
notes: SpeG spermidine/spermine N-acetyltransferase, Staphylococcus aureus USA300, UniProt A0A0H2XGJ0; gene synthesized and cloned into pMCSG21 at the SspI site; monomer ~19.8 kDa; after TEV cleavage the residues SN would remain at the N-terminus; The number of copies differs by experiment: dodecamer from crystal symmetry and PISA, trimer/tetramer by SEC; also called SaSpeG; source: E. coli BL21 (DE3) …
As a reminder, the stoichiometry N is a count of units in the complex or per binding partner. With B2, the “stoichiometry N” value in data set [3] is 12.
